Data published in patent publication US20250257137A1 (IMBIOLOGICS, published 2025).
Like-named read-outs stand apart in the source and are kept apart here.

What was measured:
[1] = target: T1, Fcα/µ receptor (R&D systems) (UniProt Q8WWV6 17-450); assay: ELISA, Fcα/µ receptor coated at 100 ng/well; detection HRP anti-IgM (F5µ)
T1 sequence: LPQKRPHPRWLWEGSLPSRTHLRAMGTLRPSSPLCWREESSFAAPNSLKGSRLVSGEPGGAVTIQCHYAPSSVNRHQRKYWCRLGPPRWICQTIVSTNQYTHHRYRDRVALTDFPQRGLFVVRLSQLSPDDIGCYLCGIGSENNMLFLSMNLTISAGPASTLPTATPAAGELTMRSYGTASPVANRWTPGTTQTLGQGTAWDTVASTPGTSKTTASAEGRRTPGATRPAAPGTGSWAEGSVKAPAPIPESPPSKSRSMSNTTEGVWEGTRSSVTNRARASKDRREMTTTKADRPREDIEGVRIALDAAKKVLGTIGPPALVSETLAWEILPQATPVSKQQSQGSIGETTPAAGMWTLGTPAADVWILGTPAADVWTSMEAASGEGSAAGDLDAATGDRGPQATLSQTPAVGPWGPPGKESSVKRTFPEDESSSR

[2] = target: T2, pIgR (polymeric Ig receptor; R&D systems) (UniProt P01833 19-638); assay: ELISA, pIgR coated at 100 ng/well; detection HRP anti-IgM (F5µ)
T2 construct: also called pIg receptor

[3] = target: T3, HLA-G naturally expressed on JEG-3 cells (human, UniProt P17693 25-338); assay: flow cytometry on JEG-3 cells that naturally express HLA-G; detection anti-IgM-PE or anti-IgG Fc-FITC; MFI
T3 construct: whole, on cells; also called HLA-G expressing cells; HLA-G receptor in the cell

[4] = target: T4, HLA-G-6× his tag (IMBiologics) (human, UniProt P17693 25-308); assay: blocking ELISA: ILT-2 antigen coated at 150 ng/well, HLA-G-6× his added with the dilution, detection HRP anti-6× his; blocked ligand ILT-2
T4 construct: also called recombinant HLA-G protein

[5] = target: T5, HLA-G protein antigen (human, UniProt P17693 25-308); assay: SPR according to Example 1-4-1; HLA-G antigen
T5 construct: also called HLA-G antigen

[6] = target: T4, HLA-G-6× his tag (IMBiologics); assay: blocking ELISA: ILT-2 antigen coated at 150 ng/well, HLA-G-6× his added with the dilution, detection HRP anti-6× his; blocked ligand ILT-2; remark: listed apart in the source
[7] = target: T5, HLA-G protein antigen; assay: ELISA according to Example 1-4-1
[8] = target: T5, HLA-G protein antigen; assay: ELISA on HLA-G antigen, according to Example 1-4-1

T2 sequence (P01833 19-638 limits assumed): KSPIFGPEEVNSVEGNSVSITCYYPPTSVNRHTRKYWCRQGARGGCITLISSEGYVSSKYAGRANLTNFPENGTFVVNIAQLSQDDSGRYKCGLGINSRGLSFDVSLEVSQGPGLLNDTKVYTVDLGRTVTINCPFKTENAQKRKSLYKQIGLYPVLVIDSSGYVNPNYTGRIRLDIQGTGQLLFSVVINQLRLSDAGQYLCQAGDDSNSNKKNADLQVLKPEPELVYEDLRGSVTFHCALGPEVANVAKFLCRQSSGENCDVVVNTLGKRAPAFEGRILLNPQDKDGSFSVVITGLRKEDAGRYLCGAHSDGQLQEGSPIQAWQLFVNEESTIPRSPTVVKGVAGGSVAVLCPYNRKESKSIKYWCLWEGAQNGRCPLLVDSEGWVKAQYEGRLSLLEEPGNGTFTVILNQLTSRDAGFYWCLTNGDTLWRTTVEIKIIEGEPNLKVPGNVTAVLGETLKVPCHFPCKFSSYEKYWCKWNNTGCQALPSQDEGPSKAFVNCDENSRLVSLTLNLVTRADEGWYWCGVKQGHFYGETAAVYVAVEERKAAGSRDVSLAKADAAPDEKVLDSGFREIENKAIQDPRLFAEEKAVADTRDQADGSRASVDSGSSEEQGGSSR

B1: [(CMVpHLA)2-(linker)2-(IgG Fc region)-(IgM Fc region)]5-(J chain D105K) (Fc fusion)
chain (part 1 of 2): […]
chain (part 2 of 2): QDTAIRVFAIPPSFASIFLTKSTKLTCLVTDLTTYDSVTISWTRQNGEAVKTHTNISESHPNATFSAVGEASICEDDWNSGERFTCTVTHTDLPSPLKQTISRPKGVALHRPDVYLLPPAREQLNLRESATITCLVTGFSPADVFVQWMQRGQPLSPEKYVTSAPMPEPQAPGRYFAHSILTVSEEEWNTGETYTCVVAHEALPNRVTERTVDKSTGKPTLYNVSLVMSDTAGTCY
chain: […]
notes: not shown: IgG Fc
[1]
  binding result: no binding

B2: [(CMVpHLA)2-(linker)2-(IgG Fc region)-(IgM Fc region)]5-(J chain R106V) (Fc fusion)
chain (part 1 of 2): […]
chain (part 2 of 2): B1 chain (part 2 of 2)
chain: […]
notes: not shown: IgG Fc
[2]
  binding result: no binding

B3: [(CMVpHLA)2-(linker)2-(IgG Fc region)-(IgM Fc region)]5-(J chain N107F) (Fc fusion)
chain (part 1 of 2): […]
chain (part 2 of 2): B1 chain (part 2 of 2)
chain: […]
notes: not shown: IgG Fc
[1]
  binding result: no binding

B4: [(CMVpHLA)2-(linker)2-(IgG Fc region)-(IgM Fc region)]5-(J chain R106A) (Fc fusion)
chain (part 1 of 2): […]
chain (part 2 of 2): B1 chain (part 2 of 2)
chain: […]
notes: not shown: IgG Fc
[1]
  binding result: no binding

B5: [(CMVpHLA)2-(linker)2-(IgG Fc region)-(IgM Fc region)]5-(J chain R106Q) (Fc fusion)
chain (part 1 of 2): […]
chain (part 2 of 2): B1 chain (part 2 of 2)
chain: […]
notes: not shown: IgG Fc
[1]
  binding result: no binding

B6: (A2014)2-(IgG Fc region) (antibody, V domains shown)
VH: QVQLQQSGPGLLKPSQTLSLTCAISGDSVSSNRAAWNWIRQSPSRGLEWLGRTYYRSKWYNDYAVSVQGRITLIPDTSKNQFSLRLNSVTPEDTAVYYCASVRAVAPFDYWGQGVLVTVSS
VL: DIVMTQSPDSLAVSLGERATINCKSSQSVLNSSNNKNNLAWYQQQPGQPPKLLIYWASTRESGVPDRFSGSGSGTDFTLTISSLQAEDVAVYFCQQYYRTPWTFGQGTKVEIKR
notes: also called (A2014)-(IgG Fc); (A2014)-(IgGFc) control protein
[3]
  EC50 (read off the curve): ~0.7 nM
[4]
  IC50 (read off the curve): ~8 nM
[5]
  Kd: 0.0259 nM
  koff: 0.000305 s⁻¹
  kon: 1.18e+07 M⁻¹ s⁻¹
[6]
  IC50 (read off the curve): ~30 nM

B7: [(A2014)2-(IgD hinge region)2-(IgM Fc region)]6-(J chain)0 (Fc fusion)
heavy: QVQLQQSGPGLLKPSQTLSLTCAISGDSVSSNRAAWNWIRQSPSRGLEWLGRTYYRSKWYNDYAVSVQGRITLIPDTSKNQFSLRLNSVTPEDTAVYYCASVRAVAPFDYWGQGVLVTVSSASTKGPSVFPLAPSSKSTSGGTAALGCLVKDYFPEPVTVSWNSGALTSGVHTFPAVLQSSGLYSLSSVVTVPSSSLGTQTYICNVNHKPSNTKVDKKVEPKSCRNTGRGGEEKKKEKEKEEQEERETKTPECPSHTQPLGVIAELPPKVSVFVPPRDGFFGNPRKSKLICQATGFSPRQIQVSWLREGKQVGSGVTTDQVQAEAKESGPTTYKVTSTLTIKESDWLSQSMFTCRVDHRGLTFQQNASSMCVPDQDTAIRVFAIPPSFASIFLTKSTKLTCLVTDLTTYDSVTISWTRQNGEAVKTHTNISESHPNATFSAVGEASICEDDWNSGERFTCTVTHTDLPSPLKQTISRPKGVALHRPDVYLLPPAREQLNLRESATITCLVTGFSPADVFVQWMQRGQPLSPEKYVTSAPMPEPQAPGRYFAHSILTVSEEEWNTGETYTCVVAHEALPNRVTERTVDKSTGKPTLYNVSLVMSDTAGTCY
light: not shown
[7]
  fold improvement of EC50 against the (A2014)-(IgGFc) control protein: ≥ 1000 fold
[5]
  Kd: 0.00232 nM
  koff: 3.51e-05 s⁻¹
  kon: 1.48e+07 M⁻¹ s⁻¹
[8]
  EC50 (read off the curve): ~0.04 nM
